Assay results: patent CN110156895A (SHANGHAI JIABEI BIOMEDICAL TECH CO LTD, dated 2019)

Assays:
人PD-L1胞外区-6His [1] = target: T1, 人PD-L1胞外区-6His (human, UniProt Q9NZQ7 19-238); assay: SPR (Biacore), multi-cycle kinetics; antibody captured on Protein A chip, PD-L1 as analyte from 40 nM in 2-fold dilutions, 6 concentrations
T1 construct: also called PD-L1-6His; 人PD-L1胞外结构区-6His蛋白

人PD-L1胞外区-6His [2] = target: T1, 人PD-L1胞外区-6His; assay: AlphaLISA competition: antibody titrated against binding of His-tagged PD-L1 to biotinylated PD-1

T1 sequence (Q9NZQ7 other isoform, or with tags, fused parts or gaps): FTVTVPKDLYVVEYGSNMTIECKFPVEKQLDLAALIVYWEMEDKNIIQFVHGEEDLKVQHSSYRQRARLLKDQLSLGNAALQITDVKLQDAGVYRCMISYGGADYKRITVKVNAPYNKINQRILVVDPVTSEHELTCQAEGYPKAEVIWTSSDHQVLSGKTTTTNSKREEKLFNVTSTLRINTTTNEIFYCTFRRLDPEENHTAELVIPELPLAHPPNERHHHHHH

B1: 抗PD-L1全人源单克隆抗体 (antibody, V domains shown)
VH: QVQLVQSGGELKRPGSSVKVSCKASGGTFSSYAISWVRQAPGQGLEWMGRIIPIFGTANYAQKFQGRVTITADESTSTAYMELSSLRSEDTAVYYCASSSYRHFAFDIWGQGTTVTVSS
VL: QSALTQPASVSGSPGQSITISCTGTSSDVGSYNLVSWYQQHPGKAPKLMIYEVTKRPSGVSNRFSGSKSGNTASLTISGLQAEDEADYYCSSYAGSNNLVFGGGTKVTVL
notes: also called 抗PD-L1抗体; 抗PD-L1全长抗体
**Q.** With B1 as the binder, how does the Kd (人PD-L1胞外区-6His [1]) read?
**A.** 7.1 nM

**Q.** And the IC50 (人PD-L1胞外区-6His [2])?
**A.** 0.0372 µg/mL
